B1: BRCT-containing protein 1 (Schizosaccharomyces pombe (strain ATCC 38366 / 972)), Q10337 (parent)
chain: MLAAESSNKELFIKNDGKALSFPYDWKLATHVICDDFSSPNVQEGSKRSLRLAKTNWIRDCVDKNTLLNYSFYSCNPYLLFKGICASSCQIDSYQSSLIDDALETFGGRFSKGLMKSMTHLFTYSGMGAKCKKVLDKPSLSIKLIHPQWLLDCLQFGQLIDQDPYLFPNPSYKKNDSSISKAEPTSLFRNVLHGKRIYFSNDLNLPTNFRHSLQKFSVGIGAKIAESINDCDIFIGLKRDTIEFNLASNKNTTIGTISWLLNLFVLGSWKSPLLNALHYPFPSVGFLKDQMVAVTNYTDAARIYLEKLLLACGATYTKDLKPTNTLLIAASSYGQKYGAAKVWNIPTVHHSWLYSSFKNLSSQAFTDFPVPLDDSYMDFIFPCPLNVEKGSFEDTLKSSLTKGNSEVLLDDLSDPSVSSIKGNKTNEELEKEFKSTSDNFGKHIILTSSFSNQSADKGSSLAAEDDRNDEGSTITGVNRELQDEGRLEIDAKSSKTNTPPSPLLVGTPSKESLKEASSDDELPVLATKLVDNVIKEKSPLSLTPKVVVPSHKETYTDEKKLIDELDRVNPLNSSQLLRSKRKSAATALSMLQNVIMPDVLAFEREKKRRQTHRSVSSGEVSRESSESRNTNAKASKRVYITFTGYDKKPSIDNLKKLDMSITSNPSKCTHLIAPRILRTSKFLCSIPYGPCVVTMDWINSCLKTHEIVDEEPYLLNDPEKELELGCTLESALKRARAQGPSLLEDYVVYLTSKTVAPENVPAVISIVKSNGGVCSTLNVYNKRLARHLEDGNVVLITCNEDSHIWTNFLDNASQNKTIFLQNYDWLIKTVLRQEIDVNDRIADEFARAV

Variants of B1 are the subject of the test. To be noted: with h2a1_schpo hta1, P04909.
For the variant T643A, the “effect of a mutation on the interaction” value is given as “disrupting interaction”.
